The results in this text go back to article PMC3435109 (2012).

This experiment concerns the target PKA catalytic subunit (Mus musculus, UniProt P05132). Briefly: SPR. A general note: SPR reads the build-up and loss of mass on a sensor chip optically.

B1: RIIβ 102-265 (protein)
chain: PVINRFTRRASVCAEAYNPDEEEDDAESRIIHPKTDDQRNRLQEACKDILLFKNLDPEQMSQVLDAMFEKLVKEGEHVIDQGDDGDNFYVIDRGTFDIYVKCDGVGRCVGNYDNRGSFGELALMYNTPRAATITATSPGALWGLDRVTFRRIIVKNNAKKRKMY
As to B1, binding was put at a Kd of 0.6 nM.

B2: RIIβ 108-268 (protein)
chain: TRRASVCAEAYNPDEEEDDAESRIIHPKTDDQRNRLQEACKDILLFKNLDPEQMSQVLDAMFEKLVKEGEHVIDQGDDGDNFYVIDRGTFDIYVKCDGVGRCVGNYDNRGSFGELALMYNTPRAATITATSPGALWGLDRVTFRRIIVKNNAKKRKMYESF
The molecule B2 displayed an equilibrium dissociation constant (Kd) of 11.3 nM.

By Kd is commonly meant a measure of binding affinity in units of concentration. Higher therefore signals weaker binding.
